Measurements from US20260209365A1, “ANTI-COMMON GAMMA CHAIN PROTEINS AND COMPOSITIONS OF MATTER” (SINOMAB BIOSCIENCE LIMITED, priority 2023, published 2026).

Assays:
[1] = target: T1, native γc proteins from human (Homo sapiens, UniProt P31785); experiment: Binding to native human γc on transfected HEK-293 cells, flow cytometry; assay type: cell-based; settings: FITC-labelled antibody 33 nM (5 μg/ml)
T1 construct: transfected with plasmid expressing full length γc protein from human; expressed in transfected cells; host or cells: HEK-293
T1 sequence (P31785 23-369): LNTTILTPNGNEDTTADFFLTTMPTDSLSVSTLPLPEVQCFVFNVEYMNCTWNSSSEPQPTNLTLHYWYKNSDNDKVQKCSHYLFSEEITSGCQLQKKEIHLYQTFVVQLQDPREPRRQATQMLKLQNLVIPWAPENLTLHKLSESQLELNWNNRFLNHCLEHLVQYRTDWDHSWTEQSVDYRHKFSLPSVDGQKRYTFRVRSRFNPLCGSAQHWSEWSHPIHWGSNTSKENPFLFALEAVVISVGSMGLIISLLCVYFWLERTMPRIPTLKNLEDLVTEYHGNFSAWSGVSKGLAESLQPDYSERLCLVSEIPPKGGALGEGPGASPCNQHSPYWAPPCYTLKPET
Description: The binding specificities of humanized anti-γc antibodies to native γc proteins were further evaluated by […] binding assay. In brief, human HEK-293 cells were transfected with plasmid expressing full length γc protein from human, rhesus, cynomolgus or common marmoset. Two days later, transfected cells or non-transfected controls were incubated with FITC-conjugated hSM-05A on ice for an hour before analysis by flow cytometry.

[2] = tested on: IL-9 induced ERK phosphorylation; experiment: Western blot of IL-9 induced ERK phosphorylation in Jurkat T cells; assay type: cell-based, human; settings: humanized antibodies; 33 nM (5 μg/ml)

B1: hSM-05A: full-length humanized anti-γc antibody derived from SM-05A by framework patching (antibody, V domains shown)
VH: QVQLVQSGAEVLKPGASVKVSCKASGYTFTEYTMHWVKQARGQRLEWIGGIDPYNGGATYNQRFKGKATLTTDTSTSTAYMELRNLRSDDTAVYYCARRRLYYGNALDYWGQGTLVTVSS
VL: DIVMTQSPLSLPVTPGEQASISCRSSQSLVHSNGNTYLHWYLQKPGQSPQLLIYKVSSRFSGVPDRFSGSGSGTDFTLKISRVEAEDVGVYFCSQTTHVPFTFGSGTKLEIKR
Q: How did the “binding to native human γc on HEK-293” value [1] turn out when B1 was run?
A: Its value is “could bind to the native γc proteins from humans and common marmoset”.

Q: What about the “suppression of IL-9 induced ERK phosphorylation” value [2] of the same molecule?
A: The value was “better suppression to IL-9 induced ERK phosphorylation than hSM-05E”.
